Literature values in patent publication US20090004190A1, “Rage Fusion Proteins And Methods Of Use” (priority 2006, published 2009).

How the values were obtained:
[1] = assessed by retention of immunoreactivity sRAGE

## human sRAGE: human soluble RAGE (SEQ ID NO: 4)
other
  half-life in plasma: about 2 hours
[1]
  half-life: less than 2 hours
